One may read the stoichiometry N as a count of units in the complex or per binding partner.

Experiment in all cases: SEC
(In general: In gel filtration, larger molecules generally elute earlier.)

The target in test [1] is Pang17 soluble spike ectodomain (2P, GSAS, T4 fibritin trimerization motif) (pang17 (sarbecovirus of pangolins) | bacteriophage T4).
Test [2] addresses BtKY72 soluble spike ectodomain (2P, GSAS, T4 fibritin trimerization motif) (BtKY72 (sarbecovirus) | bacteriophage T4).
Test [3] concerns the target Yun11 soluble spike ectodomain (2P, GSAS, T4 fibritin trimerization motif) (Yun11 (sarbecovirus) | bacteriophage T4).
The target in test [4] is Rs4081 soluble spike ectodomain (2P, GSAS, T4 fibritin trimerization motif) (Rs4081 (sarbecovirus) | bacteriophage T4).
For test [5], the target named is SARS-CoV-1 soluble spike ectodomain (2P, GSAS, T4 fibritin trimerization motif) (SARS-CoV-1 | bacteriophage T4) (UniProt P59594).
Test [6] has as its target RmYN02 soluble spike ectodomain (2P, GSAS, T4 fibritin trimerization motif) (RmYN02 (sarbecovirus) | bacteriophage T4).
Test [7] deals with BM48-31 soluble spike ectodomain (2P, GSAS, T4 fibritin trimerization motif) (BM48-31 (sarbecovirus) | bacteriophage T4).
The target in test [8] is Rf1 soluble spike ectodomain (2P, GSAS, T4 fibritin trimerization motif) (Rf1 (sarbecovirus) | bacteriophage T4).

For the substance “Pang17 soluble spike ectodomain (2P, GSAS, T4 fibritin trimerization motif) (domain or fragment)”, in test [1], the stoichiometry N worked out at 3.

“BtKY72 soluble spike ectodomain (2P, GSAS, T4 fibritin trimerization motif) (domain or fragment)” came in with a stoichiometry N in test [2] of 3. In test [3], “Yun11 soluble spike ectodomain (2P, GSAS, T4 fibritin trimerization motif) (domain or fragment)” registered a stoichiometry N of 3. In turn, “Rs4081 soluble spike ectodomain (2P, GSAS, T4 fibritin trimerization motif) (domain or fragment)” returned a stoichiometry N in test [4] of 3. “SARS-CoV-1 soluble spike ectodomain (2P, GSAS, T4 fibritin trimerization motif) (from UniProt P59594 14-1190) (domain or fragment)” gave a stoichiometry N in test [5] of 3. For “RmYN02 soluble spike ectodomain (2P, GSAS, T4 fibritin trimerization motif) (domain or fragment)”, the stoichiometry N in test [6] was found to be 3. In turn, “BM48-31 soluble spike ectodomain (2P, GSAS, T4 fibritin trimerization motif) (domain or fragment)” returned a stoichiometry N in test [7] of 3. Turning to “Rf1 soluble spike ectodomain (2P, GSAS, T4 fibritin trimerization motif) (domain or fragment)”, in test [8], the stoichiometry N was determined as 3.

These data come from PMC9435400.
